Measurements taken from the supplement of paper PMC10567573.

B1: FBXO34 (parent)
chain: PRYREDPCKQCKKKYVKGDVSLCR

Variants of: B1
Test: protein stability index of a GFP-peptide fusion (GPS, HEK-293T) (PSI 1-6); higher = more stable
Settings: c terminus: a fixed tail appended
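Also: lentivirally expressed fusions sorted by FACS into six bins by GFP to DsRed ratio, PSI derived from sequencing read proportions per bin multiplied by bin number.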

Protein stability index: each site, then its substitutions
P1: G 2.89; H 2.85; I 2.34; K 3.65; L 1.93; M 2.75; N 3.42; Q 2.86; R 2.96; S 2.6; T 2.75; V 2.22; W 1.78; Y 2.45
R2: A 2.96; C 2.41; D 3.03; E 2.97; F 2.66; G 3.47; H 2.86; I 2.98; K 2.52; L 2.76; M 2.49; N 2.85; P 2.75; Q 3; S 3.03; T 2; V 2.98; W 3.25; Y 2.64
Y3: A 3.39; C 2.77; D 2.82; E 4; F 2.93; G 3.39; H 2.67; I 2.76; K 2.63; L 2.73; M 2.56; N 2.84; P 3.07; Q 2.74; R 3.24; S 2.8; T 2.65; V 2.28; W 2.55
R4: A 3.38; C 2.94; D 3.17; E 3.3; F 2.69; G 3.25; H 2.96; I 2.67; K 2.79; L 2.89; M 2.61; N 2.99; P 2.72; Q 2.79; S 2.78; T 2.97; V 2.77; W 2.01; Y 2.66
E5: A 2.66; C 2.7; D 2.94; F 2.57; G 2.68; H 2.76; I 2.46; K 3.27; L 2.78; M 2.66; N 2.58; P 2.77; Q 2.83; R 2.8; S 2.58; T 2.67; V 2.83; W 2.33; Y 2.51
D6: A 2.46; C 2.61; E 3.14; F 2.35; G 2.48; H 2.61; I 2.21; K 3.06; L 2.15; M 2.92; N 1.92; P 2.22; Q 3.71; R 3.19; S 2.5; T 2.61; V 2.58; W 1.98; Y 2.3
P7: A 2.8; C 2.26; D 2.85; E 2.76; F 2.22; G 2.7; H 2.23; I 2.38; K 2.51; L 1.85; M 2.42; N 2.94; Q 2.23; R 2.31; S 2.69; T 2.18; V 2.19; W 3.07; Y 2.44
C8: A 4.08; D 4.16; E 4.06; F 3.15; G 4.35; H 3.63; I 3.57; K 3.88; L 3.71; M 2.95; N 3.86; P 3.7; Q 3.87; R 3.81; S 3.82; T 3.98; V 3.61; W 3.02; Y 3.33
K9: A 2.53; C 2.35; D 2.54; E 3.33; F 2.14; G 2.59; H 2.29; I 2.16; L 2.42; M 2.45; N 2.46; P 2.28; Q 2.72; R 2.53; S 2.51; T 2.66; V 2.82; W 2.26; Y 2.6
Q10: A 2.79; C 2.13; D 2.83; E 2.87; F 1.77; G 3.31; H 2.39; I 2.13; K 2.81; L 2.04; M 2.09; N 2.64; P 3.13; R 2.75; S 3.13; T 2.78; V 3.28; W 2.69; Y 2.72
C11: A 3.23; D 4.4; E 3.91; F 2.12; G 3.91; H 3.68; I 3.01; K 4.09; L 3.31; M 3.01; N 4.14; P 3.99; Q 3.75; R 3.77; S 4.07; T 3.57; V 3.11; W 2.12; Y 2.76
K12: A 2.52; C 1.58; D 2.57; E 2.86; F 1.79; G 2.5; H 2.76; I 2.33; L 2.28; M 2.18; N 2.39; P 3.25; Q 2.57; R 3.54; S 2.54; T 2.57; V 2.31; W 2.37; Y 2.46
K13: A 2.51; C 2.23; D 2.63; E 2.69; F 2.55; G 2.68; H 2.35; I 2.05; L 2.94; M 2.47; N 2.66; P 1.68; Q 2.36; R 2.6; S 2.63; T 2.58; V 2.59; W 2.65; Y 2.16
K14: A 2.17; C 1.84; D 2.24; E 2.69; F 2.5; G 2.48; H 2.29; I 2.19; L 2; M 2.31; N 2.54; P 2.85; Q 2.59; R 2.88; S 2.45; T 2.92; V 2.2; W 2.22; Y 2.12
Y15: A 2.8; C 2.73; D 3.06; E 3.12; F 2.73; G 3.47; H 4.01; I 2.95; K 3.49; L 3.1; M 3.11; N 2.99; P 2.98; Q 2.9; R 3.31; S 3.07; T 3.13; V 2.94; W 2.79
V16: A 3.11; C 3.63; D 2.73; E 2.81; F 2.22; G 2.55; H 2.77; I 2.5; K 2.75; L 2.98; M 2.19; N 2.52; P 3.48; Q 2.63; R 3.4; S 2.93; T 2.74; W 2.31; Y 2.65
K17: A 2.89; C 2.52; D 2.52; E 2.53; F 2.04; G 2.61; H 3.2; I 2.21; L 1.96; M 2.39; N 2.77; P 2.83; Q 2.23; R 2.59; S 2.19; T 2.67; V 2.69; W 2.72; Y 2.29
G18: A 2.54; C 2.94; D 2.86; E 3.17; F 2.16; H 3.23; I 2.35; K 2.69; L 2.25; M 2.18; N 2.92; P 3.13; Q 3.2; R 3.31; S 2.92; T 2.5
